Data taken from patent publication US20030099984A1 (TEXAS A AND M UNIVERSITY SYSTEM, published 2003).

T1: untagged RNase A (UniProt P61823 27-150)
T1 construct: Negative control
T1 sequence: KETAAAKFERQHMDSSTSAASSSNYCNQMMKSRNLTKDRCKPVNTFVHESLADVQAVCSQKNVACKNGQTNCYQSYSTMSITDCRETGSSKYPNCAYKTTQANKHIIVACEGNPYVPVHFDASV

B1: RNase H-like protein (sugarcane), yeast two-hybrid fusion (other)
chain: GHYGRGEHCMKNMAASYSQDAQLDLVLPDAPVDASASRSEHSSQLASSNWRSVIQNSPPDLLCGCGRPAIRRTAETAKNNGRIFRTCPACKIWIWQDLLDSYVNALISYCRDASIDSLQSELESSRLLISEKQAQISRLEKQLETLQPLISKYTEQSRSIAQASIPSSLFFLEACSLRHQRRRVNENQGGANFKRSYWSD
notes: Prey clone from the cDNA library of silenced sugarcane plant #16; same id for bait and prey fusions
B2: 35S labeled RNase H-like protein transcription and translation (TNT) product (other)
chain: B1 chain
modifications: labeled with 35S Cysteine
notes: Made in rabbit reticulocyte lysate; used as probe in farwestern blots and as the labelled partner in the pull down

What was measured:
[1] = molecular target: the molecule itself; assay: yeast two-hybrid, beta-galactosidase filter assay; bait and prey RNase H-like protein
[2] = molecular target: T2, untagged hen egg white lysozyme (hen, UniProt P00698 19-147); assay: farwestern blot (FIG. 13), control lane
T2 construct: Negative control; also called HEWL

untagged RNase A = molecular target: T1, untagged RNase A; assay: farwestern blot (FIG. 13), control lane
[3] = molecular target: T3, untagged bovine serum albumen (bovine, UniProt P02769 25-607); assay: Ni column pull down under physiological conditions, SDS PAGE autoradiogram
T3 construct: Negative control; also called BSA
T3 sequence (P02769 25-607 limits assumed): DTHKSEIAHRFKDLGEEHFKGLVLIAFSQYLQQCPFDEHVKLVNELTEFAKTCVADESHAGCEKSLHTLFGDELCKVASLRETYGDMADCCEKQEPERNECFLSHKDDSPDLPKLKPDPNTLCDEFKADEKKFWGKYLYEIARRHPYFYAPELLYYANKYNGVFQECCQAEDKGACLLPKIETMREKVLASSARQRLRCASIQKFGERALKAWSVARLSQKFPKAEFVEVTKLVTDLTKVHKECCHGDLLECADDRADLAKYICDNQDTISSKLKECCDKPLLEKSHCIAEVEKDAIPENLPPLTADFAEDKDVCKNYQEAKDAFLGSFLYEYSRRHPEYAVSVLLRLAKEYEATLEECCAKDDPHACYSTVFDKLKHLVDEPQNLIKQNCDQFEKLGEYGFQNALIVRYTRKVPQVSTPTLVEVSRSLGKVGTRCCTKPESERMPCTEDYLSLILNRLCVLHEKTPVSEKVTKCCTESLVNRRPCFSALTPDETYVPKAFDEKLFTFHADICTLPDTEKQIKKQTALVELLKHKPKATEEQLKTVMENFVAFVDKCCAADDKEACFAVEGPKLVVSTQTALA

T2 sequence (P00698 19-147): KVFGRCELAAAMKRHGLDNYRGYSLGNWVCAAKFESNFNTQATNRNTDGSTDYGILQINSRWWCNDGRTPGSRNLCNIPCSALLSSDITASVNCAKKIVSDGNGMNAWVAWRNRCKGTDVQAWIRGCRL

Row | Binder | binding result [1] | binding result [2] | binding result (untagged RNase A) | binding result [3]
1 | B1 | binds |  |  | 
2 | B2 |  | no binding | no binding | no binding
